These results are taken from paper PMC5738438, “Dynamic intramolecular regulation of the histone chaperone nucleoplasmin controls histone binding and release” (Nature Communications, 2017).

A value given as a limit tells only on which side of the number the result lay.

What is called stoichiometry N is the number of molecules, sites or subunits per partner or assembly. In general, Kd refers to the constant that tells how readily two partners part at equilibrium.

Data set [1] deals with the molecule itself. The data set is described as follows: SEC-SAXS; complex of core+A2 and H2A/H2B purified by SEC, 4.83 mg/mL on Superdex 200 PC3.2/300, 5 mM DTT; Porod volume. (In general: In gel filtration, larger molecules generally elute earlier.)
For a further data set, the target named is H2A/H2B dimer (Xenopus, UniProt P06897 2-123; P02281 1-126). Kind of data set: other fluorescence titration; equilibrium tryptophan (W125) fluorescence, 340/360 ratio; tail or peptide 0.5 µM, histones titrated; 20 mM Tris pH 7.6, 150 mM NaCl, 1 mM EDTA, 1 mM DTT, 0.01% NP-40; single-site model. As to conditions: both partners purified.

B1: Npm core+A2 truncation (1–145) (domain or fragment)
chain: ASTASNTSKVEKPVSLIWGCELNEQNKTFAFKIEDEEEKCEHQLALRTVCLGDKAKDEFHIVEIVTQEEGKEKPVPIASLKPSILPMATMVGIELTPPVTFRLKAGSGPVYISGQHVAMEEDYSWAEEEDEGEEEEEEEEDPESP
For the molecule B1, the “stoichiometry N” value in data set [1] worked out at 5.

B2: A2 peptide (residues 119–145) (peptide)
chain: MEEDYSWAEEEDEGEEEEEEEEDPESP
Consider B2, for which the Kd with H2A/H2B dimer is < 0.05 µM.
